Test results reported in patent publication US7008623 (GlaxoSmithKline, dated 2006).
One block for each binder: values may come before it.

What was measured:
soluble CD23 (sCD23) [1] = biological target: T1, soluble CD23 (sCD23) (human, UniProt P06734 150-321, limits assumed); test: ELISA, plate coated with sCD23, OD against antibody concentration
T1 sequence (looked up): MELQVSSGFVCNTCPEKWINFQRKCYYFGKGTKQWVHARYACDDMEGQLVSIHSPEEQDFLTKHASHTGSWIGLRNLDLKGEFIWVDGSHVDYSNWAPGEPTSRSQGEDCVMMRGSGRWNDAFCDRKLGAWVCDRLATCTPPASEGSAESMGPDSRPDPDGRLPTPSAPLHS
Procedure: (§1) The chimaeric antibody bound sCD23 in an ELISA assay. For the ELISA assay to determine sCD23 binding, EIA/RIA plates (Costar) were coated with 100 µl/well of 2 µg/ml sCD23 in 35 mM NaHCO_3, 15 mM Na_2CO_3, pH 9.3 overnight at 4° C. Plates were washed three times with 150 mM NaCl, 50 mM Trizma base, 0.1% (v/v) Tween-20, pH 7.4 (TBS/Tween), blocked for 1–2 hours at 22° C. with 100 µl/well of 2% bovine serum albumin in TBS/Tween, and washed three times with TBS/Tween.
(§2) The concentration of chimeric and humanised anti-CD23 antibody required for half-maximal binding to sCD23 was assayed using the sCD23 ELISA already described. Absorbance at 405 nm was plotted versus a range of concentrations of antibody to generate a sigmoidal curve with a "goodness of fit" or correlation coefficient of 1. The absorbance was read using a Molecular Devices plate reader (Menlo Park, Calif., USA) and Softmax (Molecular Devices Corp) software to calculate best fit by a log-logit algorithm then display the curve, equation parameters and correlation coefficient. A discussion of curve fitting appears in "Data Analysis and Quality Control of Assays: A Practical Primer", by R P Channing Rogers in Practical Immuno Assay, editor Wilfrid R Butt; published by Marcel Dekker, Inc., New York 1984. […] The value for x in ng/ml was calculated for the following equation: […]

soluble CD23 (sCD23) [2] = biological target: T1, soluble CD23 (sCD23); test: ELISA, sCD23 coated on plate, antibody concentration for half-maximal binding (log-logit fit)
Procedure: as §1, §2

[3] = biological target: T2, purified recombinant CD23 (human, UniProt P06734 150-321, limits assumed); test: Biacore SPR, recombinant CD23 immobilised on CM5; affinity (association) constant
T2 construct: also called CD23 antigen; immobilised CD23
T2 sequence (looked up): T1 sequence (looked up)
Procedure: (§3) The association rate, dissociation rate and the dissociation rate constant for the binding of humanised anti-CD23 to the CD23 antigen was evaluated on the Biacore Biosensor. Briefly, purified recombinant CD23 was immobilised onto a CM5 sensor surface. Carboxyl groups on the dextran surface were activated by 1-ethyl-3(3-dimethylaminopropyl) carbidimide (EDCO/N-hydroxysuccimimide (NHS). Following activation, recombinant CD23 was passed over the surface to initiate immobilisation. Ethanolamine was then added to quench residual active groups. Humanised anti-CD23 diluted in HBS buffer was passed over the sensor surface. Binding of anti-CD23 to immobilised CD23 was monitored in real time for estimation of the association rate (M^-1 seq^-1). Dissociation of the CD23 and the anti-CD23 complex in buffer was also monitored for estimation of the dissociation rate (sec^-1). The dissociation constant (nM) was calculated from the dissociation and association rate. […] The affinity constant was determined to be approximately 9 ×10^10 Ka mol^-1.

[4] = biological target: T2, purified recombinant CD23; test: Biacore SPR, recombinant CD23 immobilised on CM5, antibody in solution; lower end of the range over 6 batches
Procedure: as §3

[5] = biological target: T2, purified recombinant CD23; test: Biacore SPR, recombinant CD23 immobilised on CM5, antibody in solution; upper end of the range over 6 batches
Procedure: as §3

[6] = biological target: T2, purified recombinant CD23; test: Biacore SPR, recombinant CD23 immobilised on CM5, calculated from the rates; lower end of the range over 6 batches
Procedure: as §3

- EC50 (read off the curve) (soluble CD23 (sCD23) [1]): ~0.06 µg/mL
- EC50 (soluble CD23 (sCD23) [2]): 0.0163 µg/mL
B1: chimaeric anti-CD23 antibody (murine C11 variable regions, human gamma 1 and human kappa constant regions) (antibody, human IgG1, V domains shown)
VH: EVKLEESGGGLVQPGGSMKLSCVASGFTFSGYWMSWVRQSPEKGLEWVAEIRLKSDNYATHYAESVKGKFTISRDDSKSRLYLQMNSLRAEDSGVYYCTDFIDWGQGTL
VL: DIVITQDELSNPVTSGESVSISCRSSKSLLYKDGKTYLNWFLQRPGQSPQLLMYLMSTRASGVSDRFSGSGSGTDFTLEISRVKAEDVGVYYCQQLVEYPFTFGSGTKLEIKR
notes: The VH is fused to the human IgG1 (gamma 1) constant region of Reichmann et al 1988 and the VL to the human kappa constant region of Reichmann et al 1988; It was transiently expressed in COS cells and tested as supernatant; The variable regions were amplified with signal-peptide primers, so the entries may include a leader, and no cleavage site is stated; also called chimeric CD23; chimaeric CD23 …

- EC50 (read off the curve) (soluble CD23 (sCD23) [1]): ~0.03 µg/mL
- Ka [3]: ~9e+10 M⁻¹
- EC50 (soluble CD23 (sCD23) [2]): 0.015 µg/mL
- koff [4]: 1e-05 s⁻¹
- kon [4]: 1.5e+06 to 1.85e+06 M⁻¹ s⁻¹
- koff [5]: 2e-05 s⁻¹
- Kd [6]: 0.008 to 0.012 nM
B2: humanised anti-CD23 antibody (IgG1 with mutations 248 Leu to Ala and 250 Gly to Ala, human kappa) (antibody, V domains shown)
VH: EVQLVESGGGLVKPGGSLRLSCAASGFTFSGYWMSWVRQAPGKGLEWVAEIRLKSDNYATHYAESVKGKFTISRDDSKSRLYLQMNSLKTEDTAVYYCTDFIDWGQGTLVTVSS
VL: DIVMTQSPLSLPVTPGEPASISCRSSKSLLYKDGKTYLNWYLQKPGQSPQLLIYLMSTRASGVPDRFSGSGSGTDFTLKISRVEAEDVGVYYCQQLVEYPFTFGQGTKVEIKR
notes: The light chain constant region is human kappa; also called humanised CD23 IgG1m
